Experimental data as given in PMC10626419, “DONSON is required for CMG helicase assembly in the mammalian cell cycle” (EMBO Reports, 2023).

Molecular target: T1, Recombinant mouse CMG helicase (CDC45‐MCM‐GINS) (mouse, UniProt Q9Z1X9 1-566; P97310 1-904; P25206 1-812; P49717 1-862; P49718 1-734; P97311 …)
T1 construct: CDC45, mouse; MCM2, mouse; MCM3, mouse; MCM4, mouse; MCM5, mouse; MCM6, mouse; MCM7, mouse; PSF1 (GINS subunit), mouse; fourth GINS subunit, mouse; PSF3 (GINS subunit), mouse; SLD5 (GINS subunit), mouse; The complex was captured on IgG Sepharose and released with TEV protease, so one subunit carried a cleavable tag; source: budding yeast strain YCE1259 co-expressing the 11 subunits, purified (IgG …)
Assay: co-IP; purified recombinant mouse DONSON and CMG incubated in 25 mM Hepes‐KOH pH 7.6, 200 mM KOAc, 0.02% NP‐40, 10 mM MgOAc, 1 mM DTT, 0.1 mg/ml BSA for 30 min on ice; CMG isolated on magnetic beads coupled to MCM6 antibody, 1 h on ice; immunoblotting (Fig 1C)
Conditions: both partners purified

binding result: binds
B1: Recombinant mouse DONSON (natural protein, UniProt Q9QXP4 1-560, looked up)
chain: MAVSVPGYSPSFKRPPETVRLRRKRSRDHGAAVPASLPEPAPRRAALAAGLPLRPFPTAGGRGGAAATIARRNPFARLDNRPRVSDEASEEPLRGPQGASGPLLDSNEENNLLWEDTSSHERTGTELSQSQRVSLSESDTWSSDGTELPVDWSIKTRLLFTSSQPFSWADHLKAQEEAQGLVQHCRATEVTLPQSIQDPKLSTALRCAFQQALVYWLHPAFSWLPLFPRIGADRKMAAKTSPWSADETLQHALMSDWSVSFTSLYNLLKTKLCPYFYVCSYQFTVLFRAAGLAGSSVITALISPTTRGLREAMRNEGIEFSLPLLEEIGHKKKVRDPSLESEEEQAVSDEDEEESFSWLEEIGVQDQIKKPDVISIKLRKEKHEVQMDHRPESVVLVKGLNTFKLLNFLINCKSLVATSGAQAGLPPTLLSPIAFRGASMQMLKARSSNVKTQALSGYRDKFSLDITGPVMPHALHSMSMLLRSSQRGSFSAGLYAHEPTAVFNVGLSLDKELDRKVAREDLANCGLHPKTLEQLSQRPVLGKSSLRSVEMSDYILSWRS
notes: DONSON, mouse; also called His‐SUMO‐DONSON (before cleavage); source: E. coli Rosetta (DE3) pLys, purified (Ni‐NTA, ULP1 cleavage, Superdex 200)
